{
  "source": "patent US8158376B2",
  "about": "“Bisubstrate fluorescent probe binding to protein kinases” (University of Tartu, priority 2006, dated 2012)",
  "assay_in_all_cases": "Kinase selectivity panel",
  "assay_type_in_all_cases": "biochemical",
  "key": {"GSK3b": {"target": "GSK3b (Homo sapiens, UniProt P49841)", "sequence (P49841 whole entry, species assumed)": "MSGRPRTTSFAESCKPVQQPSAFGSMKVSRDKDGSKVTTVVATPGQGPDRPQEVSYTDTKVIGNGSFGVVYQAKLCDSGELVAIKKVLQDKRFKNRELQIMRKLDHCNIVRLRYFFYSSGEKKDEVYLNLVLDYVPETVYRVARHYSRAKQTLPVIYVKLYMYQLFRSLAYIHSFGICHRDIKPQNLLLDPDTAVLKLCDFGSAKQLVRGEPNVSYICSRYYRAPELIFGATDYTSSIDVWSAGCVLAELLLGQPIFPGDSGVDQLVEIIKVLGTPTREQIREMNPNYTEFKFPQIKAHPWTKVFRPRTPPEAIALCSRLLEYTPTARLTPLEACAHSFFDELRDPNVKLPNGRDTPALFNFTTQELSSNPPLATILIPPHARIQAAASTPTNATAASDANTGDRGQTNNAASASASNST", "settings": "read-out: residual activity (%) GSK3b", "protocol": "(§1) The panel of kinases included all 52 kinases available for testing.\n(§2) The assay of protein kinases was performed at 30° C. as described previously [Davies et al., Biochem. J. 351 (2000) 95; Murray et al., Biochem. J. 384 (2004) 477]."}, "IKKb": {"target": "T1, IKKb (Homo sapiens, UniProt O14920)", "T1 sequence (O14920 1-756)": "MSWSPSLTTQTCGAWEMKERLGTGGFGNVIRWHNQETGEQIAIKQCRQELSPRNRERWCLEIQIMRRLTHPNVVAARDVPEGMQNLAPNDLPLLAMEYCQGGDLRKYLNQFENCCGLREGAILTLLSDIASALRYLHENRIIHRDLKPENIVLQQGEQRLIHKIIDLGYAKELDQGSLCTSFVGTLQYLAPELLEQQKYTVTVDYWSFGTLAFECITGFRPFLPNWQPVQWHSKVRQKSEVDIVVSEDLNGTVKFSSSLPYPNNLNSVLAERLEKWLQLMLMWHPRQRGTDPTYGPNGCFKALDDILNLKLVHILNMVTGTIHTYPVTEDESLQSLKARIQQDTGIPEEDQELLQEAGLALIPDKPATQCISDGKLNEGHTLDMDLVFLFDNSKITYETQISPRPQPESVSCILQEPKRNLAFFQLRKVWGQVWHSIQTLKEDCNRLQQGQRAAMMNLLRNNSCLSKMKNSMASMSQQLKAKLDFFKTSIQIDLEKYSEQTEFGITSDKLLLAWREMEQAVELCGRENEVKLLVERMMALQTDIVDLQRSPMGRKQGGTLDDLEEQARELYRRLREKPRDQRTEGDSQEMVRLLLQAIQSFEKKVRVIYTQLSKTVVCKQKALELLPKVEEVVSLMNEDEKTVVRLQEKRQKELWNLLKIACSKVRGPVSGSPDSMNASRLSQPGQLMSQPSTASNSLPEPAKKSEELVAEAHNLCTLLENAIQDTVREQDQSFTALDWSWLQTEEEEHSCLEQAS", "settings": "read-out: residual activity (%) IKKb", "protocol": "as §1, §2"}, "JNK3": {"target": "JNK3 (Homo sapiens, UniProt P53779)", "sequence (P53779 whole entry, species assumed)": "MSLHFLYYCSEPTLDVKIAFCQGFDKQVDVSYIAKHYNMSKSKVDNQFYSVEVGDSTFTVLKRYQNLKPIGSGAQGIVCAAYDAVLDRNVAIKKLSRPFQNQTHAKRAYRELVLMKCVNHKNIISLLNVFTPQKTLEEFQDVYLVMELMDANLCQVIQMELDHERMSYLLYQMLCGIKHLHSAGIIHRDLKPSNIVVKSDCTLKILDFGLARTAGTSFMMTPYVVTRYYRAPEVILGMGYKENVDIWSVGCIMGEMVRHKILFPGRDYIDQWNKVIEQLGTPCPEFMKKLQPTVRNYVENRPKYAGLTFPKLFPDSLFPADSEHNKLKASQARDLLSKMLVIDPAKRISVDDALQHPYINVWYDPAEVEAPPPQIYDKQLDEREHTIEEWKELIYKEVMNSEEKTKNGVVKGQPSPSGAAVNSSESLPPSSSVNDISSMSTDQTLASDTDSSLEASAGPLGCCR", "settings": "read-out: residual activity (%) JNK3", "protocol": "as §1, §2"}, "Lck": {"target": "Lck (Homo sapiens, UniProt P06239)", "sequence (P06239 whole entry, species assumed)": "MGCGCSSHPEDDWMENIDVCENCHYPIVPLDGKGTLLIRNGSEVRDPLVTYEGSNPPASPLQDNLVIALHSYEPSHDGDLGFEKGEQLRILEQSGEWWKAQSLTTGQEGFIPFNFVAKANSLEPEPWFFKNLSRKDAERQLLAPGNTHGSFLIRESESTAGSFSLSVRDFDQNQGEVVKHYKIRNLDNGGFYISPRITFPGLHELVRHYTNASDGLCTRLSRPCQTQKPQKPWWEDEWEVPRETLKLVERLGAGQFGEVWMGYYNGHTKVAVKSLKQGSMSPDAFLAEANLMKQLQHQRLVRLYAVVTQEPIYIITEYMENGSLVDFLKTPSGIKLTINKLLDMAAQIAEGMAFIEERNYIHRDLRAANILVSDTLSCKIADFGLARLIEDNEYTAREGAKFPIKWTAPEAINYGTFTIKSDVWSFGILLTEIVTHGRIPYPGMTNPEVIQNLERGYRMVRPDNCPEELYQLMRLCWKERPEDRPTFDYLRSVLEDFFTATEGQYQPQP", "settings": "read-out: residual activity (%) Lck", "protocol": "as §1, §2"}, "MAPKAP-K1a/rsk-1": {"target": "MAPKAP-K1a/rsk-1 (Homo sapiens, UniProt Q15418)", "sequence (Q15418 whole entry)": "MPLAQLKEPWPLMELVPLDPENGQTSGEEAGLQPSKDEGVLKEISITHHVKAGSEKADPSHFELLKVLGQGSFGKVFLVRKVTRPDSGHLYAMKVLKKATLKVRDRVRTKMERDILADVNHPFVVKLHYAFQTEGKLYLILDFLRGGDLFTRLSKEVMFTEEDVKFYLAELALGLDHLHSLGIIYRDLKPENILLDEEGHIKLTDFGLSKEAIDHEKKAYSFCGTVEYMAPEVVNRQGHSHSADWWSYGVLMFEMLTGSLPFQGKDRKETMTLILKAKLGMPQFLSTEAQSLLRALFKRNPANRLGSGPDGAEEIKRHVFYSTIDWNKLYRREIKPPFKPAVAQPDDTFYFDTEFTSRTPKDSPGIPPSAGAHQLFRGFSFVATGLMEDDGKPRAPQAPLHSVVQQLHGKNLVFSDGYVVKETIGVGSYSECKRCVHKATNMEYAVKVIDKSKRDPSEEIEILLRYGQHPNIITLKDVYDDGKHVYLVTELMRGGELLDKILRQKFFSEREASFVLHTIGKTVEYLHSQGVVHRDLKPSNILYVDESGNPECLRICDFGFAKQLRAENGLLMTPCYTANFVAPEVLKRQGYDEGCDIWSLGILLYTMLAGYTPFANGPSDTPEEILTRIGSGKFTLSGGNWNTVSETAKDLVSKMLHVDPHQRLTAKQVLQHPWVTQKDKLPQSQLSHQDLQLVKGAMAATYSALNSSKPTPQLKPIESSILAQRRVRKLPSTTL", "settings": "inhibitor 1 μM, ATP 50 μM", "protocol": "as §1, §2"}, "MAPKAP-K2": {"target": "MAPKAP-K2 (Homo sapiens, UniProt P49137)", "sequence (P49137 whole entry, species assumed)": "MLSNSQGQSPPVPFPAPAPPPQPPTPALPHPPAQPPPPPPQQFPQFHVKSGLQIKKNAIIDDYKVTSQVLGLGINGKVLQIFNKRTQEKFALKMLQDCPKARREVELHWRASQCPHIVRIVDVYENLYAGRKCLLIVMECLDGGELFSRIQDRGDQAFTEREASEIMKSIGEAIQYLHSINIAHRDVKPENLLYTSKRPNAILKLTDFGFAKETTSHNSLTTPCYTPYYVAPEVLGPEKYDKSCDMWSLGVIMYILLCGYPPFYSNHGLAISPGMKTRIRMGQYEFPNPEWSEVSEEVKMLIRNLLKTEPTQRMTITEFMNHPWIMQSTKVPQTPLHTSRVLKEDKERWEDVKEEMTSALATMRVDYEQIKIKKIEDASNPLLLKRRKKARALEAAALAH", "settings": "read-out: residual activity (%) MAPKAP-K2", "protocol": "as §1, §2"}, "MARK3": {"target": "MARK3 (Homo sapiens, UniProt P27448)", "sequence (P27448 whole entry, species assumed)": "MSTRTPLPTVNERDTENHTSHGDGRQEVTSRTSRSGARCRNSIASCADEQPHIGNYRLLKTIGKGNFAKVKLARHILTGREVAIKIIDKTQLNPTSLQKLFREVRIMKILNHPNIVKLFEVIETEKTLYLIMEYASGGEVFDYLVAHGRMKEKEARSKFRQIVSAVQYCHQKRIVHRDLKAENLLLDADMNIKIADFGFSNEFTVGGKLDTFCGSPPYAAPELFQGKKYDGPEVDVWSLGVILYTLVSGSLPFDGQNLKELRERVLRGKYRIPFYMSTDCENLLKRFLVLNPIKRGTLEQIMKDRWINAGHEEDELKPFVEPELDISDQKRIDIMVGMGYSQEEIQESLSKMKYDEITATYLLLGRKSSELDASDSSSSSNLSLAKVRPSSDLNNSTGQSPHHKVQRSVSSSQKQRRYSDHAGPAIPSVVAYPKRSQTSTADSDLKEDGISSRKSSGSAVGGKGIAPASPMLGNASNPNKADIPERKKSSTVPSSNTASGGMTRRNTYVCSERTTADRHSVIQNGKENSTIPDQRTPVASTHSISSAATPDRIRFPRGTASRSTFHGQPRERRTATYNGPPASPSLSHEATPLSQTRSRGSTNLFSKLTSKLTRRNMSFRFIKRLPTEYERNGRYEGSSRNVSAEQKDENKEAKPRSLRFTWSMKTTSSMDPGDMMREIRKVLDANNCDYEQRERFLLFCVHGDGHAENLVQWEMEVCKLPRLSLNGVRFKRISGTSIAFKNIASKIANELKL", "settings": "read-out: residual activity (%) MARK3", "protocol": "as §1, §2"}, "MKK1": {"target": "MKK1 (Homo sapiens, UniProt Q02750)", "sequence (Q02750 whole entry, species assumed)": "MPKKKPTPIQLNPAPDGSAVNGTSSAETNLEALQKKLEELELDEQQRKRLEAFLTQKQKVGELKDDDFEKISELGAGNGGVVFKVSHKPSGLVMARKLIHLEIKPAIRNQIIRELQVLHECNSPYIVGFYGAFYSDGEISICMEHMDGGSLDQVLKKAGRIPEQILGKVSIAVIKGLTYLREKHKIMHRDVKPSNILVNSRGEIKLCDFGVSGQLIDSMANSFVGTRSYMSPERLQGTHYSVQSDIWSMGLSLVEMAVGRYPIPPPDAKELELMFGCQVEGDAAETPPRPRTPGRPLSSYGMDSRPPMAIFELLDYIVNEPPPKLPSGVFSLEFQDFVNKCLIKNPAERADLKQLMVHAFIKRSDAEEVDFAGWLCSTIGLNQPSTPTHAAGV", "settings": "read-out: residual activity (%) MKK1", "protocol": "as §1, §2"}, "NEK2a": {"target": "T2, NEK2a (Homo sapiens, UniProt P51955)", "T2 sequence (P51955 1-445)": "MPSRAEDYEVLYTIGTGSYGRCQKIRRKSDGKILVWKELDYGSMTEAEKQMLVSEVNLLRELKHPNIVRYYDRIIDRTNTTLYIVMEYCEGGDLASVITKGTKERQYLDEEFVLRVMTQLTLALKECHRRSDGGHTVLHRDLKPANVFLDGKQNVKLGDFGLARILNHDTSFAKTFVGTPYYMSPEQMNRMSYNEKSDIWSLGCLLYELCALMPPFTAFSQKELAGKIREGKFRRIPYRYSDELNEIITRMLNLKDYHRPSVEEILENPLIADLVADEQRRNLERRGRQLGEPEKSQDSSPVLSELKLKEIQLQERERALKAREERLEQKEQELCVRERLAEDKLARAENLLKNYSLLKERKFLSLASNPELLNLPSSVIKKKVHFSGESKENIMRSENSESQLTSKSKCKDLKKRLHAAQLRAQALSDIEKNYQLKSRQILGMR", "settings": "read-out: residual activity (%) NEK2a", "protocol": "as §1, §2"}, "NEK7": {"target": "NEK7 (Homo sapiens, UniProt Q8TDX7)", "sequence (Q8TDX7 whole entry, species assumed)": "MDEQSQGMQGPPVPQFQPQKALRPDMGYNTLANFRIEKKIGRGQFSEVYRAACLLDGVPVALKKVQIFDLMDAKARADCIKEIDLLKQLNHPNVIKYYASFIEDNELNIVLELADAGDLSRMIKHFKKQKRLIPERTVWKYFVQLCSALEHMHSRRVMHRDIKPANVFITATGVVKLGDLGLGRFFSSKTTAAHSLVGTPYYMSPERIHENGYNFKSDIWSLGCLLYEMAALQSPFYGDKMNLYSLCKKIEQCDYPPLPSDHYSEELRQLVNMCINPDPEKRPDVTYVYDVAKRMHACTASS", "settings": "read-out: residual activity (%) NEK7", "protocol": "as §1, §2"}, "eEF2K": {"target": "T3, eEF2K (Homo sapiens, UniProt O00418)", "T3 sequence (O00418 1-725)": "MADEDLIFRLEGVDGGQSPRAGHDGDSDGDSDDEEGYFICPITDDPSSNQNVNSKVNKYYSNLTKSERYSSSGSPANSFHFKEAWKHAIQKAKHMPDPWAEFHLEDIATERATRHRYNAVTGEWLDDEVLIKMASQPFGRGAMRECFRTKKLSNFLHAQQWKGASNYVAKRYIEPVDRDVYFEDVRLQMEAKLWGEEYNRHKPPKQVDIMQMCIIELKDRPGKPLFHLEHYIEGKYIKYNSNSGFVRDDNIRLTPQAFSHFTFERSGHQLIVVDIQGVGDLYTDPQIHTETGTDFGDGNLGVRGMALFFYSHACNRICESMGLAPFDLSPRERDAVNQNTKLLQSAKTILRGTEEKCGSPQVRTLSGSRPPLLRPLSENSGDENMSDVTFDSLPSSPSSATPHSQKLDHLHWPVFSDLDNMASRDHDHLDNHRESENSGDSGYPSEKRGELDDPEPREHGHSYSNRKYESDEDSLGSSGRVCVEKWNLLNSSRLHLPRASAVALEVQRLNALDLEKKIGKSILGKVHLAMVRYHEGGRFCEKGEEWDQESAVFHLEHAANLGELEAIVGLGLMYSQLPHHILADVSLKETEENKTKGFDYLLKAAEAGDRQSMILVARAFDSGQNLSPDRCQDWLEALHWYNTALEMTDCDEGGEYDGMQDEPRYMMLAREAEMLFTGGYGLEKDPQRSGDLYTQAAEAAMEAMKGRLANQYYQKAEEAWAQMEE", "settings": "read-out: residual activity (%) eEF2K", "protocol": "as §1, §2"}},
  "note": "Like-named read-outs stand apart in the source and are kept apart here.",
  "data": [
    {"compound": "N=C(N)NCCC[C@@H](NC(=O)[C@@H](CCCNC(=N)N)NC(=O)[C@@H](CCCNC(=N)N)NC(=O)[C@@H](CCCNC(=N)N)NC(=O)[C@@H](CCCNC(=N)N)NC(=O)[C@@H](CCCNC(=N)N)NC(=O)CCCCCNCCNS(=O)(=O)c1cccc2cnccc12)C(N)=O", "note": "[Compound 26, H9-Hex(D-Arg)6-NH2]", "values": [
      {"measurement": "remaining activity at 1 µM", "setting": "GSK3b; inhibitor 1 μM, ATP 5 μM", "result": 94, "unit": "%"},
      {"measurement": "remaining activity at 1 µM", "setting": "IKKb; inhibitor 1 μM, ATP 5 μM", "result": 87, "unit": "%"},
      {"measurement": "remaining activity at 1 µM", "setting": "JNK3; inhibitor 1 μM, ATP 50 μM", "result": 92, "unit": "%"},
      {"measurement": "remaining activity at 1 µM", "setting": "Lck; inhibitor 1 μM, ATP 50 μM", "result": 88, "unit": "%"},
      {"measurement": "remaining activity at 1 µM", "setting": "MAPKAP-K1a/rsk-1; read-out: residual activity (%) MAPKAP-K1a/rsk-1", "result": 0, "unit": "%"},
      {"measurement": "remaining activity at 1 µM", "setting": "MAPKAP-K2; inhibitor 1 μM, ATP 20 μM", "result": 80, "unit": "%"},
      {"measurement": "remaining activity at 1 µM", "setting": "MARK3; inhibitor 1 μM, ATP 5 μM", "result": 53, "unit": "%"},
      {"measurement": "remaining activity at 1 µM", "setting": "MKK1; inhibitor 1 μM, ATP 5 μM", "result": 84, "unit": "%"},
      {"measurement": "remaining activity at 1 µM", "setting": "NEK2a; inhibitor 1 μM, ATP 50 μM", "result": 98, "unit": "%"},
      {"measurement": "remaining activity at 1 µM", "setting": "NEK7; inhibitor 1 μM, ATP 20 μM", "result": 56, "unit": "%"},
      {"measurement": "remaining activity at 1 µM", "setting": "eEF2K; inhibitor 1 μM, ATP 5 μM", "result": 91, "unit": "%"}
    ]},
    {"compound": "N=C(N)NCCC[C@@H](NC(=O)[C@@H](CCCNC(=N)N)NC(=O)[C@@H](CCCNC(=N)N)NC(=O)[C@@H](CCCNC(=N)N)NC(=O)[C@@H](CCCNC(=N)N)NC(=O)[C@@H](CCCNC(=N)N)NC(=O)CCCCCNC(=O)[C@H]1O[C@@H](n2cnc3c(N)ncnc32)[C@H](O)[C@@H]1O)C(N)=O", "note": "[Compound 5, AdcAhx(D-Arg)6-NH2]", "values": [
      {"measurement": "remaining activity at 1 µM", "setting": "GSK3b", "result": 56, "unit": "%"},
      {"measurement": "remaining activity at 1 µM", "setting": "IKKb", "result": 94, "unit": "%"},
      {"measurement": "remaining activity at 1 µM", "setting": "JNK3", "result": 91, "unit": "%"},
      {"measurement": "remaining activity at 1 µM", "setting": "Lck", "result": 70, "unit": "%"},
      {"measurement": "residual activity (%) MAPKAP-K1a/rsk-1", "setting": "MAPKAP-K1a/rsk-1", "result": "28 (±7) %"},
      {"measurement": "remaining activity at 1 µM", "setting": "MAPKAP-K2", "result": 85, "unit": "%"},
      {"measurement": "remaining activity at 1 µM", "setting": "MARK3", "result": 40, "unit": "%"},
      {"measurement": "remaining activity at 1 µM", "setting": "MKK1", "result": 77, "unit": "%"},
      {"measurement": "remaining activity at 1 µM", "setting": "NEK2a", "result": 82, "unit": "%"},
      {"measurement": "remaining activity at 1 µM", "setting": "NEK7", "result": 58, "unit": "%"},
      {"measurement": "remaining activity at 1 µM", "setting": "eEF2K", "result": 92, "unit": "%"}
    ]}
  ]
}
